Our source for the Kd and stoichiometry N values is publication PMC2924879.

Assay in all cases: AUC
The target of test [1] is vMIP-II L13F (human herpesvirus-8).
The target is the same in test [2]. This is another data set of the same source.
Test [3] has the same target. The source holds these as a separate data set.

Where two headings read alike, the source gives them in different places.

Broadly, the Kd is the constant that tells how readily two partners part at equilibrium. A higher Kd goes with lower affinity. Usually stoichiometry N stands for a count of units in the complex or per binding partner.

In the case of vMIP-II L13F (natural protein), the Kd in test [1] was 129 µM; in test [2], 0.74 µM; in test [3], 41 µM. The stoichiometry N in test [3] amounted to 2.
